Test system: T1, Nc1ncnc2c1ncn2[C@@H]1O[C@H](COP(=O)(O)OP(=O)(O)OP(=O)(O)O)[C@@H](O)[C@H]1O
T1 construct: full-length DGKα (aa 1–735), N-terminal His×6 tag, Sf9-expressed
Assay: Michaelis–Menten kinetics, mixed micelle ADP-Glo assay (Km)
Assay type: biochemical, Homo sapiens
Conditions: Mg2+, Ca2+ substrate (ATP and DG) binding sites locate in the CD

diacylglycerol kinase α (DGKα) (Homo sapiens), sequence (chain, as listed by the source): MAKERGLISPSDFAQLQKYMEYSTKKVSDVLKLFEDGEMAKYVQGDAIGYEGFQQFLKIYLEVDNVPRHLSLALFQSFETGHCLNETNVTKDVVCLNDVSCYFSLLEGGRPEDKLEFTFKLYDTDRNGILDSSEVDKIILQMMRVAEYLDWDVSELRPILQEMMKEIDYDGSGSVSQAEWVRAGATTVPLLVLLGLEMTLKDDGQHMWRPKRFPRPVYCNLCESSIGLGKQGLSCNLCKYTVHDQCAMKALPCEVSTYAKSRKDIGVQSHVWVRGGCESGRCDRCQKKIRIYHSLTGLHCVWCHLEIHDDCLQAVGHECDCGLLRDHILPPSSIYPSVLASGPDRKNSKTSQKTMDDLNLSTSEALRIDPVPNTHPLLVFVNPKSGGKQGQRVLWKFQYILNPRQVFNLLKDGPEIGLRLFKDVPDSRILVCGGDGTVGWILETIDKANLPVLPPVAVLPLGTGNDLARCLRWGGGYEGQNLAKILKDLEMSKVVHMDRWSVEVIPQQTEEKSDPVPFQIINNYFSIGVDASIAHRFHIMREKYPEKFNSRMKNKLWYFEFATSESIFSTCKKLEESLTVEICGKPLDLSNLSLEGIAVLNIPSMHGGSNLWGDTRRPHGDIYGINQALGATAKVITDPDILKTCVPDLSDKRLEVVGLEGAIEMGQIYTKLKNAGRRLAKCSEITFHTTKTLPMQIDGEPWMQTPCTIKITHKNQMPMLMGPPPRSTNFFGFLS

diacylglycerol kinase α (DGKα) (Homo sapiens)
Km: 240 ± 30 µM
Vmax: 2.66 ± 0.15 nmol/min/µg

— PMC6089211, “Expression and purification of human diacylglycerol kinase α from baculovirus-infected insect cells for structural studies” (PeerJ, 2018)
